Consider one molecule from article PMC6541444 (Science translational medicine, 2019).

The experiment addresses T1, recombinant mouse IL-2Ra (Sino Biological) (mouse, UniProt P01590 22-236).
T1 sequence (looked up): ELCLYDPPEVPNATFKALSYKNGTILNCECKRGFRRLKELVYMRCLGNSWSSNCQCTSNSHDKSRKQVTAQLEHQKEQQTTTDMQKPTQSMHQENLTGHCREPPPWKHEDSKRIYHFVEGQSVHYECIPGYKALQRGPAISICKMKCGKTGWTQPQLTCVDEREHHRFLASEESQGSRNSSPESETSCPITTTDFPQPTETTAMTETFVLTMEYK
In words: ELISA.

B1: mouse IL-2 (recombinant, unmodified) (ligand, UniProt P04351 21-169, looked up)
chain: APTSSSTSSSTAEAQQQQQQQQQQQQHLEQLLMDLQELLSRMENYRNLKLPRMLTFKFYLPKQATELKDLQCLEDELGPLRHVLDLTQSKSFQLEDAENFISNIRVTVVKLKGSDNTFECQFDDESATVVDFLRRWIAFCQSIISTSPQ
As to B1, the binding result is “binds”.
